This is an account of results in US20240270874A1 (JIANGSU HENGRUI PHARMACEUTICALS, published 2024).

Read-outs that look alike come from different tables or passages of the source.

The target in assay [1] is T1, human KLB&FGFR1c complex on cells (human, UniProt Q86Z14 1-1044; P11362 22-822). Description: cell-based or functional assay.
Assay [2] has as its target T2, human KLB on CHOK1-hKLB cells (human, UniProt Q86Z14 1-1044).
T2 construct: whole, on cells; also called human KLB antigen; β-Klotho
T2 sequence (looked up): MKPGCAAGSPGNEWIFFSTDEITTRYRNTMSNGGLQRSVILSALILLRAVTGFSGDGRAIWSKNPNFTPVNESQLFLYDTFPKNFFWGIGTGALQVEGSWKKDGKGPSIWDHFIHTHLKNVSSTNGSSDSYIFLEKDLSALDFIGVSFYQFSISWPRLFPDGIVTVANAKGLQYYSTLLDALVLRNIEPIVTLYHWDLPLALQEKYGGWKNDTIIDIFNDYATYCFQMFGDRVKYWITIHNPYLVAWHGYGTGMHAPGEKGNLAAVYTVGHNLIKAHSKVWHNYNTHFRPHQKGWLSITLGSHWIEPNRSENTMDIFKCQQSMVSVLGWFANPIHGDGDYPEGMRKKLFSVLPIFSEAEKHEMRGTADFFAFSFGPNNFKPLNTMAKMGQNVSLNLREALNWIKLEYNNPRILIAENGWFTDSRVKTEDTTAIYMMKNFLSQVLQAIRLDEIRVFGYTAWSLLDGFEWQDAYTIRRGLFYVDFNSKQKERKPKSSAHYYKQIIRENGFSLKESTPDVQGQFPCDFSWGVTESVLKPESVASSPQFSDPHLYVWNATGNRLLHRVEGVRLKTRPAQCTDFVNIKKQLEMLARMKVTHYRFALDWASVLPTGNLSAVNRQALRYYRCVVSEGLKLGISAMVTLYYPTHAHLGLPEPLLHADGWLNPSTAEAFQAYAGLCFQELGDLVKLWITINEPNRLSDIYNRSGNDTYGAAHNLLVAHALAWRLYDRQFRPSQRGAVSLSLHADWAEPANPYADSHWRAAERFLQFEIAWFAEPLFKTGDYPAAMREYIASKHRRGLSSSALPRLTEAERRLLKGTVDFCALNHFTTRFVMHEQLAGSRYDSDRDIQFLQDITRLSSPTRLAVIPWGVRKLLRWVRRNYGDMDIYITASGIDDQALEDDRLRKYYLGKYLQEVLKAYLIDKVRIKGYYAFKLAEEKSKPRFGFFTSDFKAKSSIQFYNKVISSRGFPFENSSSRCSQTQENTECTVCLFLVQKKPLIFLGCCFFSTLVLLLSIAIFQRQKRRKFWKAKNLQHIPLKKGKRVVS
Kind of assay: flow cytometry on CHOK1-hKLB cells. Summed up: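 Flow cytometry on CHOK1 cells overexpressing human KLB, 1×10⁵ cells/well, incubated with serially diluted antibodies 1 h at 4 °C. Bound antibody detected with APC-goat anti-human IgG Fc (1:400), 1 h at 4 °C.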
(In flow cytometry, cells or beads pass a laser one at a time.)

Assay [3] has as its target T2, human KLB on CHOK1-hKLB cells. Kind of assay: flow cytometry on CHOK1-hKLB cells. Here is the method: The binding ability of the antibodies for CHOK1 cell strains CHOK1-hKLB and CHOK1-cynoKLB overexpressing human KLB and monkey KLB (see Example 1 for specific preparation procedure), respectively, was detected by flow cytometry. The specific procedure was as follows: the above cells were cultured in 10% FBS-containing IMDM medium and incubated in an incubator at 37° C. and 5% CO₂ for 2 days. The cells were then added to a cell plate at 1×10⁵ cells per well, centrifuged at 300 g for 5 min, and then washed once with 1% BSA. The antibody diluted in gradient was added to the cell plate at 100 μL per well, and the mixture was incubated at 4° C. for 1 h and washed once with 1% BSA. The diluted (1:400) APC-goat anti-human IgG Fc fluorescent secondary antibody was added at 100 μL per well, and the resulting mixture was incubated at 4° C. for 1 h. The plate was washed three times with 1% BSA, PBS was added at 100 μL per well, and the plate was read.
This is another data set of the same source.

Assay [4] concerns the target T1, human KLB&FGFR1c complex on cells. Kind of assay: cell-based or functional assay. The source holds these as a separate data set.

T1 sequence (P11362 22-822, one chain of several): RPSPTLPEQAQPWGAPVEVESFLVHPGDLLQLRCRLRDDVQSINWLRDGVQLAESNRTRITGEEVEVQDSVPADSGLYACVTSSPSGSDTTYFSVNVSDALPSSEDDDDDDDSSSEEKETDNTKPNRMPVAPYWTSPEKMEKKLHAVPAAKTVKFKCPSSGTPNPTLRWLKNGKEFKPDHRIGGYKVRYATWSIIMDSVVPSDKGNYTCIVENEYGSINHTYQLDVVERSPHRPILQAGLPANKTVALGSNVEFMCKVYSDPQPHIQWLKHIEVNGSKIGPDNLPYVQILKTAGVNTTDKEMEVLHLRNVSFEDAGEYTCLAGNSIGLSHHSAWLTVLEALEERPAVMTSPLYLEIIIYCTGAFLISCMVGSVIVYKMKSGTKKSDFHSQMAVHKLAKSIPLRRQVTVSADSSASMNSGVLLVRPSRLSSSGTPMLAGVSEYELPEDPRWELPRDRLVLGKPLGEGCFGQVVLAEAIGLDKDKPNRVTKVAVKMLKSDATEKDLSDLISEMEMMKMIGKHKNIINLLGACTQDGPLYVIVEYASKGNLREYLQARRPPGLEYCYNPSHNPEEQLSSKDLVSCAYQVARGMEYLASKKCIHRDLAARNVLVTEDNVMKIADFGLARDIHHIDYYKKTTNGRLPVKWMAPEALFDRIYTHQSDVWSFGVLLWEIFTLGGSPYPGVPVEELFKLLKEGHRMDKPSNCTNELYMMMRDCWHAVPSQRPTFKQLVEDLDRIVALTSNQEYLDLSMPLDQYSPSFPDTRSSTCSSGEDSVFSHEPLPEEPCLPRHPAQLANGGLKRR

B1: hAb99-13 (antibody, human IgG1, kappa, L234A L235A, V domains shown)
VH: EVQLVQSGAEVKKPGASVKVSCKASGYTFTNYGINWVRQAPGQRLEWMGYIYIGNVDIEYNAKFKGRVTITSDTSASTAYMELSSLRSEDTAVYYCARGRGLGHFDVWGQGTTVTVSS
VL: DIQMTQSPSSLSASVGDRVTITCRASKSISKFLAWFQQKPGKTNKLLIYSGSTLQSGVPSRFSGSGSGTDFTLTISSLQPEDFATYYCQQHNEYPWTFGGGTKVEIKR
notes: human IgG1 (L234A, L235A) / kappa
B1: in assay [1], the “Activation fold, GAL4-Elk1 luciferase reporter in CHOK1-hKLB&hFGFR1c cells” value was 14.3 fold and the “EC50 (nM), GAL4-Elk1 luciferase reporter in CHOK1-hKLB&hFGFR1c cells” value stood at 0.19 nM. The concentration giving a half-maximal response (EC50) in assay [2] is 0.32 nM. The molecule also registered an EC50 in assay [3] of 0.44 nM. Moreover, in assay [4], the “Activation fold, SRE-Luc2P reporter in HEK293T-hKLB&hFGFR1c cells” value came to 3.57 fold and the “EC50 (nM), SRE-Luc2P reporter in HEK293T-hKLB&hFGFR1c cells” value is 2.62 nM.

B2: hAb18-8 (antibody, human IgG1, kappa, L234A L235A, V domains shown)
VH: EVQLVQSGAEVKKPGASVKVSCKASGYTFTDYAMHWVRQAPGQRLEWMGVISTYSGTTNYNQNFKGRVTITVDKSASTAYMELSSLRSEDTAVYYCARSGPLDYWGQGTTVTVSS
VL: ENVLTQSPDFQSVTPKEKVTITCRATSSVSSSYLHWYQQKPDQSPKLWIYSTSQLASGVPSRFSGSGSGTDYTLTINSLEAEDAATYYCQQYSGYPLTFGQGTKLEIKR
notes: as for B1
On to B2, for which it took 2.5 nM to reach a half-maximal effect in assay [2] (EC50). This molecule yielded an EC50 in assay [3] of 1.93 nM. For the same molecule, in assay [4], the “Activation fold, SRE-Luc2P reporter in HEK293T-hKLB&hFGFR1c cells” value worked out at 2.29 fold and the “EC50 (nM), SRE-Luc2P reporter in HEK293T-hKLB&hFGFR1c cells” value is 5.35 nM.

B3: hAb-23 (antibody, human IgG1, kappa, L234A L235A, V domains shown)
VH: QVQLVQSGAEVKKPGSSVKVSCKASGGTFSSYAISWVRQAPGQGLEWMGGIIPIFGTANYAQKFQGRVTITADESTSTAYMELSSLRSEDTAVYYCARELVSYYYGMDVWGQGTMVTVSS
VL: not shown
notes: from a human natural phage library; human IgG1 (L234A, L235A) / kappa; also called fully human antibody hAb-23
In turn, B3 returned an EC50 in assay [3] of 0.39 nM.

Usually EC50 stands for the concentration that produces a half-maximal response. Higher therefore signals weaker potency.
